Laboratory results: patent US6368619B1, “Hydrophobic preparations of hydrophilic species and process for their preparation” (Provalis UK Limited, priority 1993, dated 2002)
Each block holds one compound with its values, some of them ahead of it.

Key:
Assay type in all cases: physicochemical
[1] = Dispersion of hydrophilic species/amphiphile array in hydrophobic solvent: visual optical clarity
[2] = Percent sedimentation after 24 hours of macromolecules dispersed in oleic acid with and without PC; details: 300 μl oleic acid, error ±5%; for Percent sedimentation after 24 hours, +PC: Example 17: with egg yolk PC SUVs; for Percent sedimentation after 24 hours, −PC: Example 17: without PC
Method: 10 mg of cytochrome C, haemoglobin and FITC-dextran were each dissolved in 1 ml of distilled water. 4.4 mg of RNA (extracted from Torula yeast) was dissolved in 1 ml of phosphate-buffered saline. 2×50 μl of each of these solution was dispensed into fresh glass tubes, and to one of each of these sets of solutions was added 250 μl of SUVs prepared as in example 1 at a concentration of 40 mg/ml of egg yolk lecithin (PC).
Both sets of tubes were shell-frozen and lyophilised overnight as above. The following day 300 μl of oleic acid was added to each of the tubes. The samples were left to stand at room temperature with occasional vortexing for one hour until complete dispersion had been achieved. The oils were allowed to stand overnight. The turbidity of the samples prepared without PC was greater than those containing PC.
The following day, sediments had settled out in the samples prepared without PC. Without disturbing any of the samples, the top 150 μl of each sample was taken off, and the absorbances measured of both the material removed, and the material left behind, after mixing; comparison of the two readings allowed one to calculate the percentage sedimentation for samples with and without PC (error in measurements ±5%) Values obtained are listed below.

[3] = Turbidity of oil preparations by optical density / absorbance (plate reader); details: for OD650: Example 23: HDPoC, one hour; for optical density at 550 nm: Example 25: 0.5 mg protein/well, oleic acid
Method: It is very much preferred that the preparations of the invention are optically clear and this can be monitored by measuring turbidity at visible wave lengths and, in some cases, by checking for sedimentation over a period of time. […]
Aprotinin was dissolved in distilled water at a concentration of 10 mg/ml. Hexadecyl phosphocholine (HDPoC) was dissolved in distilled water at a concentration of 100 mg/ml. To aliquots of 100 μl of aprotinin solution, volumes of HDPOC were added ranging from 0 through to 10, 20, 30, 40 to 50 μl. The mixtures were frozen at −20° C. and lyophilised overnight. The following day 100 μl of oleic acid was added to each sample and shaken for one hour at room temperature on an orbital shaker.
Octyl glucoside was dissolved in distilled water and dispensed into wells of a microplate to give the following amounts of amphiphile per well: −0, 0.5, 1.0, 1.5, 2.0, 2.5, 5, 7.5 and 10 mg. Aprotinin was dissolved in distilled water at a concentration of 5 mg/ml, and 100 μl was dispensed into each well above, containing 0.5 mg of protein. The plate was mixed well, frozen at −20° C. and lyophilised overnight. The following day, […] of oleic acid was added to each well. The plate was shaken at room temperature, and optical density measurements at 550 nm taken at intervals with a plate reader. A low absorbance value indicates a low level of scattering, and corresponds to effective dispersion of protein in oil.
The results, expressed in terms of optical density as a function of octyl glucoside concentration (at constant protein concentration) at different times after addition of oleic acid are given in the table and accompanying graph.

[4] = Example 7: salmon calcitonin together with aprotinin, egg PC (EmulsiFlex), glycerol mono-oleate BP

Compound: ferritin
appearance of solution ([1]; Example 18: egg yolk PC SUVs, ammonium acetate 10 mg/ml, oleic acid): optically clear solutions were obtained (although ferritin solution showed some opalescence, and was strongly coloured)

Compound: [Ca+2].[Cl-].[Cl-] [calcium chloride]
appearance of dispersion ([1]; Example 35: soy PC SUV, 500 mg Miglyol 818, after standing overnight): completely clear dispersion
appearance of dispersion ([1]; Example 35: soy PC SUV, 500 mg oleic acid, after several hours): completely clear dispersion

Compound: Salmon calcitonin
appearance of oil phase ([1]; Example 1: egg PC SUVs, lyophilised, 300 mg oleic acid BP, one to two hours at room temperature): single clear lipid phase, which was optically transparent
protein content of clear preparation ([1]; Example 2: soy PC SUVs, 95% oleic acid): 6.7 mg protein/g oleic acid
appearance of preparation ([1]; Example 2: soy PC SUVs, lyophilised, 1.2 g of 95% oleic acid): completely clear
appearance of oil phase ([1]; Example 4: 13.4 mg protein, 100 mg soy PC, 200 mg oleic acid): clear oil phase
calcitonin content of clear oil phase ([1]; Example 4: soy PC SUVs, 200 mg oleic acid): 42.7 mg calcitonin/g
appearance of dispersion [1, 4]: optically clear opalescent dispersion
appearance of dispersion ([1]; Example 11: 30 mg soy PC, 300 mg MCT oil, following morning): opalescent
appearance of dispersion ([1]; Example 11: 30 mg soy PC, 300 mg Miglyol 810, following morning): turbid
appearance of dispersion ([1]; Example 11: 30 mg soy PC, 300 mg Miglyol 812, following morning): opalescent
appearance of dispersion ([1]; Example 11: 30 mg soy PC, 300 mg Miglyol 818, following morning): completely clear
appearance of dispersion ([1]; Example 11: 30 mg soy PC, 300 mg Miglyol 829, following morning): completely clear
appearance of dispersion ([1]; Example 11: 30 mg soy PC, 300 mg Miglyol 840, following morning): turbid

appearance of solution ([1]; Example 27: soya PC dispersion, 1 g Miglyol 818, overnight at room temperature): optically clear solution
Compound: NC[C@@H]1O[C@H](O[C@H]2[C@@H](O)[C@H](O[C@@H]3[C@@H](O)[C@H](N)C[C@H](N)[C@H]3O[C@H]3O[C@H](CN)[C@@H](O)[C@H](O)[C@H]3N)O[C@@H]2CO)[C@H](N)[C@@H](O)[C@@H]1O.O=S(=O)(O)O [Neomycin sulphate, reference compound]

Compound: Haemoglobin
Percent sedimentation after 24 hours, +PC [2]: 0%
Percent sedimentation after 24 hours, −PC [2]: 44%

appearance of dispersions ([1]; Example 33: soy PC SUV, melts of tripalmitin, triheptadecanoin or tristearin with 2% oleic acid, 78 C, after several minutes): completely clear
Compound: carboxyfluorescein [reference compound]

Compound: Cytochrome C
Percent sedimentation after 24 hours, +PC [2]: 3.1%
Percent sedimentation after 24 hours, −PC [2]: 76%

Compound: ribonuclease
appearance of dispersion ([1]; Example 31: soy PC SUV, 1.6 g Miglyol 818, after several hours): clear dispersion

Compound: aprotinin
OD650 ([3]; lipid:protein ratio 0, 100 μl oleic acid): 1.117
OD650 ([3]; lipid:protein ratio 1:1, 100 μl oleic acid): 0.869
OD650 ([3]; lipid:protein ratio 2:1, 100 μl oleic acid): 0.438
OD650 ([3]; lipid:protein ratio 3:1, 100 μl oleic acid): 0.207
OD650 ([3]; lipid:protein ratio 4:1, 100 μl oleic acid): 0.094
OD650 ([3]; lipid:protein ratio 5:1, 100 μl oleic acid): 0.099
optical density at 550 nm ([3]; octyl glucoside 0.00 mg/well, 1 hr): 0.548
optical density at 550 nm ([3]; octyl glucoside 0.00 mg/well, 4 hr): 0.458
optical density at 550 nm ([3]; octyl glucoside 0.00 mg/well, 8 hr): 0.489
optical density at 550 nm ([3]; octyl glucoside 0.50 mg/well, 1 hr): 0.082
optical density at 550 nm ([3]; octyl glucoside 0.50 mg/well, 4 hr): 0.043
optical density at 550 nm ([3]; octyl glucoside 0.50 mg/well, 8 hr): 0.103
optical density at 550 nm ([3]; octyl glucoside 1.00 mg/well, 1 hr): −0.003
optical density at 550 nm ([3]; octyl glucoside 1.00 mg/well, 4 hr): −0.008
optical density at 550 nm ([3]; octyl glucoside 1.00 mg/well, 8 hr): −0.008
optical density at 550 nm ([3]; octyl glucoside 1.50 mg/well, 1 hr): −0.004
optical density at 550 nm ([3]; octyl glucoside 1.50 mg/well, 4 hr): −0.015
optical density at 550 nm ([3]; octyl glucoside 1.50 mg/well, 8 hr): −0.015
optical density at 550 nm ([3]; octyl glucoside 2.00 mg/well, 1 hr): −0.007
optical density at 550 nm ([3]; octyl glucoside 2.00 mg/well, 4 hr): −0.012
optical density at 550 nm ([3]; octyl glucoside 2.00 mg/well, 8 hr): −0.013
optical density at 550 nm ([3]; octyl glucoside 2.50 mg/well, 1 hr): 0.006
optical density at 550 nm ([3]; octyl glucoside 2.50 mg/well, 4 hr): −0.004
optical density at 550 nm ([3]; octyl glucoside 2.50 mg/well, 8 hr): −0.002
optical density at 550 nm ([3]; octyl glucoside 5.00 mg/well, 1 hr): 0.307
optical density at 550 nm ([3]; octyl glucoside 5.00 mg/well, 4 hr): −0.013
optical density at 550 nm ([3]; octyl glucoside 5.00 mg/well, 8 hr): −0.014
optical density at 550 nm ([3]; octyl glucoside 7.50 mg/well, 1 hr): 0.65
optical density at 550 nm ([3]; octyl glucoside 7.50 mg/well, 4 hr): −0.015
optical density at 550 nm ([3]; octyl glucoside 7.50 mg/well, 8 hr): −0.014
optical density at 550 nm ([3]; octyl glucoside 10.00 mg/well, 1 hr): 1.628
optical density at 550 nm ([3]; octyl glucoside 10.00 mg/well, 4 hr): 0.817
optical density at 550 nm ([3]; octyl glucoside 10.00 mg/well, 8 hr): −0.014
appearance of oil phase ([1]; Example 3: lyophilate stored 5 days at 4° C. in desiccator with phosphorus pentoxide, then 300 mg oleic acid): optically clear oil phase
appearance of dispersion [1, 4]: optically clear opalescent dispersion
appearance of solution ([1]; Example 23: HDPoC, lipid:protein ratio 4:1, oleic acid): Optically clear solutions
appearance of solution ([1]; Example 23: HDPoC, lipid:protein ratio 5:1, oleic acid): Optically clear solutions
appearance of dispersion ([1]; Example 36: AOT amphiphile, 200 mg octanol, cleared rapidly, state after 24 hours): opalescent dispersion
